Usually EC50 stands for the concentration at which the effect is half-maximal. For orientation: EC50 (read off the curve) means the concentration at which the effect is half-maximal.

Experimental findings from patent US20210024635A1 (IMMATICS BIOTECHNOLOGIES, published 2021) are described below.

Assay [1] concerns the target T1, WT1 RMF peptide/HLA-A0201 complex (isolated, recombinant, biotinylated) (human).
T1 construct: also called RMF/HLA; RMF/HLA complex
Put plainly: ELISA on Neutravidin plates, IgG.

For assay [2], the target named is T2, RMF/HLA complex on antigen-positive cancer cells (SET2, BV173) (human).
T2 construct: whole, on cells; Naturally presented complex on SET2 (DSMZ ACC 608) and BV173 (DSMZ ACC 20) cells; also called RMF/HLA complex on cells; WT1/HLA-expressing cells
Put plainly: flow cytometry on BV173 cells, IgG; '++' = EC50 below 10 nM, '+' = EC50 of more than 10 nM. On the procedure:
(§1) SET2 cells (DSMZ No. ACC 608) and BV173 cells (DSMZ No. ACC 20) were used as antigen-positive cancer cells (see Dao et al.; 2013). Binding was measured by flow cytometry utilizing a PE-conjugated goat anti-human IgG secondary antibody, and EC50 values were determined.
(§2) Example 4 was repeated with the antibodies of the present disclosure, i.e. binding to RNF/HLA-positive SET2 cells (DSMZ No. ACC 608) and BV173 cells (DSMZ No. ACC 20) was tested by flow cytometry. EC50 values were determined.
Background: In flow cytometry, cells or beads pass a laser one at a time.

Assay [3] deals with T3, PIGQ peptide/HLA-A0201 complex (human, biotinylated (site not stated)).
T3 construct: Negative control / counter target complex; also called PIGQ/HLA; PIGQ/HLA complex
Put plainly: ELISA as in Example 3; biotinylated peptide/HLA complex coated at 50 nM on Neutravidin plates, IgG titrated, AP-conjugated goat anti-human IgG, RFU.

Assay [4] concerns the target T2, RMF/HLA complex on antigen-positive …. Put plainly: flow cytometry on SET2 cells, IgG; '++' = EC50 below 10 nM, '+' = EC50 of more than 10 nM. On the procedure: as §1, §2
Assay [5] addresses T1, WT1 RMF peptide/HLA-A0201 complex …. Description: Octet (BLI), IgG, apparent (bivalent) affinity; dissociation too slow for the limits of the system. On the procedure:
The apparent affinity of the binders Aali and Refmab #13 was measured for the RMF/HLA antigen with an Octet system. […] The binding of Aali was characterized by a very slow dissociation rate, which exceeded the specification limits that were set in the system.
For orientation: In BLI a coated tip is dipped into the sample, and binding shifts an interference pattern.

Assay [6] has the same target. Put plainly: ELISA on Neutravidin plates, IgG; '++' = EC50 below 10 nM, '+' = EC50 of more than 10 nM. In general terms: An ELISA detects its analyte on a solid surface through an enzyme-linked reagent.
The target is the same in assay [7]. Description: ELISA as in Example 3; biotinylated peptide/HLA complex coated at 50 nM on Neutravidin plates, IgG titrated, AP-conjugated goat anti-human IgG, RFU.
For assay [8] the target is unchanged. Put plainly: ELISA on Neutravidin plates, Fab; '++' = EC50 below 10 nM, '+' = EC50 of more than 10 nM.
Assay [9] shares this target. Description: ELISA on Neutravidin plates, Fab; EC50 compared with the best reference Fab (not named). On the procedure:
The binders were subjected to an in-depth characterization. They were directly compared to the antibodies of the prior art in an ELISA assay using Neutravidin plates as described in Example 3. For selected reference antibodies and binders of the present invention, the EC50 were determined.
Furthermore, none of the binders of the present invention show any binding to the counter targets, in particular no binding to the PIGQ/HLA complex.

Assay [10] concerns the target T3, PIGQ peptide/HLA-A0201 complex. Put plainly: ELISA on Neutravidin plates, Fab; '---' = no binding.
Assay [11] has as its target T1, WT1 RMF peptide/HLA-A0201 complex …. Description: Octet (BLI), Fab, antigen immobilized to Streptavidin. The procedure: Affinities of the Fab fragments of binders Aali and Refmab #13 for the antigen RMF/HLA were also measured with an Octet system using the antigen immobilized to Streptavidin.
The target of assay [12] is T4, WT1 RMF peptide/HLA-A0201 complex (isolated, recombinant, biotinylated) (human). Description: ELISA on Neutravidin plates, IgG.
In assay [13] the target is T4, WT1 RMF peptide/HLA-A0201 complex …. Description: ELISA on Neutravidin plates, IgG; '++' = EC50 below 10 nM, '+' = EC50 of more than 10 nM.
The target is the same in assay [14]. Put plainly: ELISA as in Example 3; biotinylated peptide/HLA complex coated at 50 nM on Neutravidin plates, IgG titrated, AP-conjugated goat anti-human IgG, RFU.

B1: Aali (IgG1) (antibody, V domains shown)
VH: QVQLVESGGGLVKPGGSLRLSCAASGFTFSDHYISWIRQAPGKGLEWVSYISSSGSTTYYAESVKGRFTISRDNAKNSLYLQMNSLRAEDTAVYYCARTYAYRYDFDLWGQGTLVTVSS
VL: QSVLTQPPSVSGAPGQRVTISCTGSSSNIGAGYDVHWYQQLPGTAPKLLIYGNSNRPSGVPDRFSGSKSGTSASLAITGLQAEDEADYYCQTWVHSYSTPVFGGGTKLTVLG
B1: the EC50 in assay [1] is less than 1 nM; in assay [2], more than 10 nM; in [4], less than 10 nM; in assay [6], less than 10 nM. For the same molecule, the binding result in assay [3] is listed as “no binding”. In addition, in assay [5], the Kd is less than 0.5 nM. Further, the “EC50 (read off the curve)” value in assay [7] was approximately 0.5 nM.

B2: Aali (Fab) (Fab, V domains shown)
VH: QVQLVESGGGLVKPGGSLRLSCAASGFTFSDHYISWIRQAPGKGLEWVSYISSSGSTTYYAESVKGRFTISRDNAKNSLYLQMNSLRAEDTAVYYCARTYAYRYDFDLWGQGTLVTVSS
VL: QSVLTQPPSVSGAPGQRVTISCTGSSSNIGAGYDVHWYQQLPGTAPKLLIYGNSNRPSGVPDRFSGSKSGTSASLAITGLQAEDEADYYCQTWVHSYSTPVFGGGTKLTVLG
notes: Tested in monovalent Fab format; also called Aali Fab fragment
Consider B2, for which, in [8], the EC50 was less than 10 nM. Further, in assay [9], the “fold better EC50 than the best binder of the prior art” value (shortened to “fold better EC50 than the best binder”) is not below 3.3 fold. Also, the binding result in assay [10] was “no binding”. Further, in assay [11], the Kd is 66 nM.

B3: Bibi (IgG1) (antibody, V domains shown)
VH: EVQLVESGGGLVKPGGSLRLSCAASGFTFSSYSMNWVRQAPGKGLEWVSSISSSSSYIYYADSVKGRFTISRDNAKNSLYLQMNSLRAEDTAVYYCARTESVWHLGFDIWGQGTLVTVSS
VL: DIQMTQSPSSVSASVGDRVTITCRASQGISSWLAWYQQKPGKAPKLLIYAASSLQSGVPSRFSGSGSGTDFTLTISSLQPEDFATYYCQQNHKYPITFGQGTKVEIKR
In the case of B3, the EC50 is less than 1 nM in [12], more than 10 nM in assay [2], more than 10 nM in assay [4] and less than 10 nM in [13]. For the same molecule, in assay [3], the binding result is recorded as “no binding”. Moreover, in assay [14], the “EC50 (read off the curve)” value was approximately 0.3 nM.

B4: Elfu (IgG1) (antibody, V domains shown)
VH: EVQLVQSGAEVKKPGESLKISCKGSGYSFTSYWISWVRQMPGKGLEWMGIIYPGTSYTRYSPSFQGQVTISADKSISTAYLQWSSLKASDTAMYYCARGYHLPYFDYWGQGTLVTVSS
VL: QSVLTQPPSVSGAPGQRVTISCTGSSSNIGAGYDVHWYQQLPGTAPKLLIYGNSNRPSGVPDRFSGSKSGTSASLAITGLQAEDEADYYCQAYASPTRVVFGGGTKLTVLG
On to B4, for which the concentration for a half-maximal effect (EC50) in [12] is less than 1 nM; in assay [2] it was more than 10 nM; in [4], more than 10 nM; in assay [13] it was less than 10 nM. In assay [3], the binding result was “no binding”. For the same molecule, in [14], the “EC50 (read off the curve)” value is approximately 0.3 nM.

B5: Cyprus (IgG1) (antibody, V domains shown)
VH: QVQLVESGGGLVKPGGSLRLSCAASGFTFSDYYMSWIRQAPGKGLEWVSYISSSGSTIYYADSVKGRFTISRDNAKNSLYLQMNSLRAEDTAVYYCARDGLRYFYGFDYWGQGTLVTVSS
VL: QSVLTQPPSVSAAPGQKVTISCSGSSSNIGNNYVSWYQQLPGTAPKLLIYDNNKRPSGIPDRFSGSKSGTSATLGITGLQTEDEADYYCQAWVHYSLVHWVFGGGTKLTVLG
Regarding B5, the half-maximal effective concentration (EC50) in assay [1] is less than 1 nM; in assay [2], more than 10 nM; in assay [4], more than 10 nM; in assay [6], less than 10 nM. For the same molecule, in [3], the binding result is reported as “no binding”. Also, the 50% effective concentration (EC50 (read off the curve)) in assay [7] is approximately 0.3 nM.

B6: Fiwi (Fab) (Fab, V domains shown)
VH: EVQLVESGGGLVKPGGSLRLSCAASGFTFSNYWISWVRQAPGKGLEWVGRIKSKTYGGTTDYAEPVKGRFTISRDDSKNTLYLQMNSLKTEDTAVYYCARGRYPELGYFDLWGQGTLVTVSS
VL: QSVLTQPPSVSAAPGQKVTISCSGSSSNIGNNYVSWYQQLPGTAPKLLIYDNNKRPSGIPDRFSGSKSGTSATLGITGLQTEDEADYYCGAWDSYLSVSFVFGGGTKLTVLG
notes: Tested in monovalent Fab format
Turning to B6, in assay [8], the concentration giving a half-maximal response (EC50) was more than 10 nM. Further, in assay [9], the “fold better EC50 than the best binder” value is not below 3.3 fold. Also, the binding result in assay [10] is given as “no binding”.

B7: Daniel (IgG1) (antibody, V domains shown)
VH: QVQLVQSGAEVKKPGASVKVSCKASGYTFTSYYMHWVRQAPGQGLEWMGIINPSGGSTSYAQKFQGRVTMTRDTSTSTVYMELSSLRSEDTAVYYCAREGYTPGGSYTFDIWGQGTLVTVSS
VL: QSVLTQPPSVSAAPGQKVTISCSGSSSNIGNNYVSWYQQLPGTAPKLLIYDNNKRPSGIPDRFSGSKSGTSATLGITGLQTEDEADYYCGSWDGFVSSYSVFGGGTKLTVLG
B7: the EC50 in [1] was less than 1 nM; in [2] it was more than 10 nM; in [4], less than 10 nM; in assay [6], less than 10 nM. The binding result in assay [3] is recorded as “no binding”. The “EC50 (read off the curve)” value in assay [7] is approximately 0.3 nM.

B8: Cyprus (Fab) (Fab, V domains shown)
VH: QVQLVESGGGLVKPGGSLRLSCAASGFTFSDYYMSWIRQAPGKGLEWVSYISSSGSTIYYADSVKGRFTISRDNAKNSLYLQMNSLRAEDTAVYYCARDGLRYFYGFDYWGQGTLVTVSS
VL: QSVLTQPPSVSAAPGQKVTISCSGSSSNIGNNYVSWYQQLPGTAPKLLIYDNNKRPSGIPDRFSGSKSGTSATLGITGLQTEDEADYYCQAWVHYSLVHWVFGGGTKLTVLG
notes: as for B6
Regarding B8, the EC50 in assay [8] is less than 10 nM. The “fold better EC50 than the best binder” value in assay [9] was not below 3.3 fold. In assay [10], the binding result is “no binding”.

B9: Daniel (Fab) (Fab, V domains shown)
VH: QVQLVQSGAEVKKPGASVKVSCKASGYTFTSYYMHWVRQAPGQGLEWMGIINPSGGSTSYAQKFQGRVTMTRDTSTSTVYMELSSLRSEDTAVYYCAREGYTPGGSYTFDIWGQGTLVTVSS
VL: QSVLTQPPSVSAAPGQKVTISCSGSSSNIGNNYVSWYQQLPGTAPKLLIYDNNKRPSGIPDRFSGSKSGTSATLGITGLQTEDEADYYCGSWDGFVSSYSVFGGGTKLTVLG
notes: as for B6
For B9, the EC50 in [8] is less than 10 nM. In addition, in [9], the “fold better EC50 than the best binder” value is not below 3.3 fold. Besides, the binding result in assay [10] was “no binding”.

B10: Fiwi (IgG1) (antibody, V domains shown)
VH: EVQLVESGGGLVKPGGSLRLSCAASGFTFSNYWISWVRQAPGKGLEWVGRIKSKTYGGTTDYAEPVKGRFTISRDDSKNTLYLQMNSLKTEDTAVYYCARGRYPELGYFDLWGQGTLVTVSS
VL: QSVLTQPPSVSAAPGQKVTISCSGSSSNIGNNYVSWYQQLPGTAPKLLIYDNNKRPSGIPDRFSGSKSGTSATLGITGLQTEDEADYYCGAWDSYLSVSFVFGGGTKLTVLG
As to B10, the concentration for a half-maximal effect (EC50) in assay [1] is less than 1 nM; in assay [2], more than 10 nM; in assay [4] it was more than 10 nM; in assay [6], less than 10 nM. Further, the binding result in [3] is given as “no binding”. Also, the “EC50 (read off the curve)” value in [7] is approximately 0.3 nM.
